Paper doi:10.1101/2020.05.04.075580
Where two headings read alike, the source gives them in different places.

How the values were obtained:
[1] = molecular target: T1, importin alpha2_21-50 peptide (mouse, UniProt P52293); assay: NMR
[2] = molecular target: T1, importin alpha2_21-50 peptide; assay: NMR; remark: listed apart in the source

B1: SOX-POU 15 bp (dsDNA)
DNA 1: GCAGATGCATAACCG
DNA 2: CGGTTATGCATCTGC
Kd [1]: 0.3 µM | Kd [2]: 600 µM
